Results published in the nanobody polyreactivity screen of Harvey et al. (2022).

test: yeast display, Sf9 membrane polyspecificity reagent, FACS + sequencing; frameworks hold sequencing errors
How it was run: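 After 36–48 hours of galactose induction, yeast (Saccharomyces cerevisiae BJ5465) displaying a synthetic nanobody library were stained at 4 °C for 1 hour with 10% biotinylated, detergent-solubilized Sf9 membrane reagent. Streptavidin microbeads enriched the stained cells before FACS sorting into low and high (top ~1%) gates on anti-HA and streptavidin fluorescence. Each clone's polyreactivity label reflects its gate of origin.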

| Sequence | polyreactivity (PSR sort gate) |
| --- | --- |
| QVQLVESGGGLVQAGGSLRLICAASGSTFKRYAMGWYRPAPGNERELVAAISSTGGSTFYADSVKGRFTISRDIAKYTVYLQMNSLKREDTAVYYCKKYRATNSARDYWGQGTQVTVSS | high polyreactivity |
| QVQLVESGGGLVQAGGSLRLICAASGSTFLVNTMGWYRQAPGKERELVAAISYSGGRTYYADSVKGRFTISRDNAKNTVYFQMNSLKPEDTAVYYCAARYYRTRREGVDYWGQGTQVTVSS | high polyreactivity |
| QVQLVESGGGLVQAGGSLRLICAASGSTFNGNDRGWYRQAPGKERELVATISDGGRTYYADSVKGRFTISRDNAKITVYLQMNSLKPEDTAVYYCAAPVYVPRAWFYYWGQGTQVTVSS | low polyreactivity |
| QVQLVESGGGLVQAGGSLRLICAASGSTFNVYAMGWYIPAPGKERELVASIRTSGTRTYYADSVKGRFTISRDNAKNNVYLQMNSLKPEDTAVYYCNARYYSNLRRHGGYWGQGTQVTVSS | high polyreactivity |
| QVQLVESGGGLVQAGGSLRLICAASGSTFQSYAMGWYRQAPGKERELVAAISARGGTTYYADSVKGRFTISRDNAKNTVYLQMNSLKPEDTAVYYCAAVDHSVYSGSPDTGESDYWGQGTQVTVSS | low polyreactivity |
| QVQLVESGGGLVQAGGSLRLICAASGSTFSSYFMGWYRQAPRKERKLVAAITRSGVYTYYADSVKGRFTISRDNAKNTVYLQMNSLKPEDTAVYYCARRAKGAYWNEYNYWGQGTQVTVSS | high polyreactivity |
| QVQLVESGGGLVQAGGSLRLICAASGSTFSYYTIGWYRTAPGKEMELVATISRRGASTYYADSVKGRFTISLDNAKNTVYLQMNSLKPEDTAVYYCAKSYYYGRSATRPEYDYWGQGTQVTVSS | high polyreactivity |
| QVQLVESGGGLVQAGGSLRLICAASGSTFTGYAMGWYRQAPGKERELVAGITGSGGSTYYADSVKGRFTISRDNAKNTVYLQMNSLKPEDTAVYYCAAELYDYGDLYYSEYDYWGQGTQVTVSS | low polyreactivity |
| QVQLVESGGGLVQAGGSLRLICAASGSTFYYNDMGWYRQAPGKERELVAAITGDGTTDYADSVKGRFTISRDNAKNTVYLQMNSLKPEDTAVYYCATTWSTYKWPDAYIIWYGYWGQGTQVTVSS | high polyreactivity |
| QVQLVESGGGLVQAGGSLRLICAASGSTLAYNAMGWYRQAPGKERELVAGIRGSGGSTYYADSVKGRFTISRDNAKNTVYLQMNSLKPEDTAVYDCAADGLSNVRQMDYWGQGTQVTVSS | low polyreactivity |
| QVQLVESGGGLVQAGGSLRLICAASGSTSWINAMGWYIQAPGKERELVAAISGRDGSTNYADSVKGRFTISRDNAKNTVYLLMNSLKPEDTAVYYCNANGRRFNRYGGDYWGLGTQVTVSS | high polyreactivity |
| QVQLVESGGGLVQAGGSLRLICAASGSTYRGYAMGWYRQAPGKERELVAAISYISGGTYYADSVKGRFTISRDNAKYTVYLQMNSLKPEDTAVYYCAVGSHSRSSNSYYYWGQGTQVTVSW | low polyreactivity |
| QVQLVESGGGLVQAGGSLRLICAASGTTFLSYAMGWYRQAQGKDRELVAAISWSGGRTYYAHSVKGRFTISRDNAKNTVYLQMNSLKPEDTAVYYCAAPHVPFTKHEYEYWGQGTQVTLSS | low polyreactivity |
| QVQLVESGGGLVQAGGSLRLICAASGVIFTGYTMGWYREAPGKESELVAAISYRGGSTYYADSVKGRFTISRDNAKITVYFQMNRLKPEDTAVYYCNAVWSNFRLGYDHWGQGTQVTVSS | high polyreactivity |
| QVQLVESGGGLVQAGGSLRLICAASGYIFYKNAMGWYRQAPGKERELVASITGTGGSTYYADSVKGRFTISRDNAKNTVYLQMNSLKPEDTAVYYCAADYTPWDPVSHWGQGTQVTVSS | low polyreactivity |
| QVQLVESGGGLVQAGGSLRLICAASGYTFYFYAMGWYIQAPGKERELVAAITGGGTTSYADSVKGRFTISRDKAKNTVYLQMNSLKPEDTAVYYCASSVRNNIERYRDYYWGQGTQVTVSS | low polyreactivity |
| QVQLVESGGGLVQAGGSLRLICAATGRIFSPNAMGWYRQAPGKERELVAAITTSGGITYYADSVKGRFTISRDNAKNTVYLQMNSLKPEDTAVYYCNTGYNGRLRDDYWGQGTQVTVSS | high polyreactivity |
| QVQLVESGGGLVQAGGSLRLICAATGSTLVSNAMGWYRKDPGKERELVAAISTSGGSTYYADSVKGRFTISRDNAKNTVYLQMNSLKPEDTAVYYCAAPYAGWGDGGDYWGQGTQVTVSS | low polyreactivity |
| QVQLVESGGGLVQAGGSLRLICADSGSIFVYYLMVWYRQAPGKEREFVAAISYGGGSTYYADSVKGRFTISRDNAKNTVYLQMNSLKPEDTAVYYCNTDIYSDYVCEEYEYWGQGTQVTLSS | high polyreactivity |
| QVQLVESGGGLVQAGGSLRLICAGSGRIFYRYPMGWYRQAPGKERELVAAITVRGGSTYYADSVKGRFTISRDNAKNTVYVQRHSLKPEDTALYYCATGLGVLYDYWYEVEFDYWGQGTQVSVSS | low polyreactivity |

| Sequence | polyreactivity (PSR sort gate) |
| --- | --- |
| QVQLVESGGGLVQAGGSLRLICASSGRIFAGYAMGWYRQAPGKERELVAAIRDSGRTYYAVSVKGRFTISRDNAKNTVYLQMNSLKPEVTAVSYCAADAHSSYSPFRWYDYWGQGTQVTVSS | low polyreactivity |
| QVQLVESGGGLVQAGGSLRLICDASGRIFGDNAMGWYRQAPGKEREFVATINGSGGSTYYADSVKGRFTISRDNAKNTVYLQMNSLKPEVTAVYYCFVQQNYGYDYWGQGTQVTVSS | low polyreactivity |
| QVQLVESGGGLVQAGGSLRLICDASGRTFTDNAMGLYRQAPGKERELVAAISSSGDFYAESVKGRFTISRDNAQNTVYLQMNSLKPEDTAVYYCAARVWRYYYQSRFYYWGQGTQVTVSS | high polyreactivity |
| QVQLVESGGGLVQAGGSLRLICDASGRTFVRYAMGWYRQAPGKERELVAAITRSASTYYADSVKGRFTISRDNAKNTVYLQMNSLKPEDTAVYYCNAGRKYWFGRAGGYDYWGQGTQVTVSS | high polyreactivity |
| QVQLVESGGGLVQAGGSLRLICDASGSIFGDYVMGWYSPAPGKERELVAAITSATSTYYADSVKGRFTISRDNAKNTVYLQMNSLKPEDTAVYYCKADATYPLWPNIWYDYDYWGQGTQVTVSS | low polyreactivity |
| QVQLVESGGGLVQAGGSLRLICSASGSIIEHYAMGWYRQAPGKERELVAAISWCGASTYYADSVKGRFTISRDNAKNTVYLQWYSLKPEDTAVYYCAAVFYGGGKRYYYWGQGTQVTVSS | high polyreactivity |
| QVQLVESGGGLVQAGGSLRLICSASGTTFPVYVMGRYRHAPGKERELVAAISRSGTSTYYADSVKGRFTISRDNAKNTVYLQMNSLKPEDTAVYYCAAQLYGHGEDYWGQGTQVTVSS | high polyreactivity |
| QVQLVESGGGLVQAGGSLRLIFAASGFIFETYAMGWYRQAPGKERELVAAISRGASTYYADSVKGRFTISRDNAKNTVYLQMNSLKPEDTAVYDCAAKRLSWHRYGYWGQGTQVTVSS | low polyreactivity |
| QVQLVESGGGLVQAGGSLRLISAASGIIFWGNAMGWYRQPPGNERELVATITGRGGSTYYADSVKGRFTISRDYAKNTVYLQMNSLKPEDTAVYYCAASGGRPILFYDVWGGIVRHEYWGQGTQVTVSS | low polyreactivity |
| QVQLVESGGGLVQAGGSLRLISAASGINFTGYAMGWYRQAPGKERELVAAISYSAASTYYADSVKGRFTISRDTAKNTVYLQMNSLKPEDTAVYYCAATAPSRSYPFRYYYWGQGTQVTVSS | high polyreactivity |
| QVQLVESGGGLVQAGGSLRLISAASGRTFYSNAMGWYRQAPGKERELVAAITKSGGRTYYADSVKGRFTISRDNAKNTDYLQMNSLIPEDTAVYYCKALVAAYYGYDYWGQGTQVTVSS | high polyreactivity |
| QVQLVESGGGLVQAGGSLRLISAASGSIFPAYDMGLYRQAPGKEREFLPAIERGGSTYYADSVKGRYTISRDNAKNTVYLPMNSLKPVDTAVFYCATDCPEYPNYISSAGFDYWGQGTQVNVSS | low polyreactivity |
| QVQLVESGGGLVQAGGSLRLISAASGSTFRHYALGWNRQAPGKERELVAAISSTGGSTYYADSVKGRFTISRDNAKNTVYLQMNSLKPEDTAVFYCAARRLYWGQGTQVTVSS | high polyreactivity |
| QVQLVESGGGLVQAGGSLRLIWAASGFTFWLNAMGWYRQAPGKERELVAAINWSGGSTYYADSVKGRFTISRDNAKNTVYLLMNILKPEDTAVYYCNRRGQYTFWPIHEYWGQGTQVTVSS | high polyreactivity |
| QVQLVESGGGLVQAGGSLRLKCAASGSTFRPYAMGWYRQAPGKERELVARITGSGDSTYYADSVKGRFTISRDNAKITVYLQINSLKPEDNAVYYCAREFDYSLSGFDYWGQGTQVTVSS | low polyreactivity |
| QVQLVESGGGLVQAGGSLRLLCADSGFTFEYYAMGWYRQAPGKERELVAAITSGGSTNYADSVKGRFTISRDNAKNTVYVQMNSLKPEDTAVYYCAAGYWYRYAALRYDHWGQGTQVTVSS | low polyreactivity |
| QVQLVESGGGLVQAGGSLRLRCAACGSIFTQYVMGWYRKAPGKERELVAAITWSGGNTYYADSVKGRFTISRDNAKNTVYLQMNSLKPEDTAVYYCAAYKPYSKYNDWGQGTQVTVSS | high polyreactivity |
| QVQLVESGGGLVQAGGSLRLRCAASGFTFRLYAMGGDRQAPGKERELVATITQRGGRTYYADSVKGRFTISRDNAKNTVYLQMNSLKPEDTAVYYCAATWSLTTGTKFDYWGQGTQVTVSS | high polyreactivity |
| QVQLVESGGGLVQAGGSLRLRCAASGFTFYLYAMGWYRQAPGKERELVAAITWSGGRTYYADSVKGRFTNSRDNAKNTVYLQMNSLKPEYTAVYYCAAVVRKQLSAPSDYWGQGTQVTVSS | high polyreactivity |
| QVQLVESGGGLVQAGGSLRLRCAASGGTFYYYAMGWYRQAPGKERELVAAISTSGTSTYYADSVKGRFTISRDNAKNTVYLQMNSLKPEDTAVYDCAARGLRVSSRGYYWGQGTQVTVSS | high polyreactivity |
